Cellular IC50 (human Aβ40, CHO-huAPP cells) and maximum percent Aβ reduction compared to untreated control data for one molecule are collected here from US20210070881A1.

This test deals with cellular BACE1 in CHOK1-huAPP cells. The experiment in a line: cell-based or functional assay.

B1: Clone35.23.4:Control IgG (anti-RSV)/2H8 (bispecific antibody, part only; not given: Anti-RSV arm; TfR-binding Fc, V domains shown, part only)
VH: QVQLVQSGAEVKKPGASVKVSCKASGYTFTNFWIHWVRQAPGQGLEWMGMIDPSSSYTKYNQKFKARATLTVDTSTSTVYMELSSLRSEDTAVYYCARSGASLPYWGQGTLVTVSS
VL: DIQMTQSPSSLSASVGDRVTITCKASQDVGRNVAWYQQKPGKSPKSLIYSASHYYSGVPSRFSGSGSGTDFTLTISSLQPEDFATYFCQQYYSYPYTFGQGTKVEIK
Turning to B1, the cellular IC50 (human Aβ40, CHO-huAPP cells) amounted to 37 nM and the maximum percent Aβ reduction compared to untreated control amounted to 83%.
